# Measured values reported in the DeepSol protein solubility set.
# Test: soluble on expression in E. coli; label from the status in PepcDB or PDB records
row,Sequence,soluble on expression in E. coli
1,MHISFIIPAFNEEQLIEPCLRSITDAVAANRSYGYTSEIIVVDNNSTDATAQLAKQAGAQVVFEPVNHIARARTAGAGAARGDWLVFMDADCLLNAGLVGDIFELIRQGRHIGAGSTLYMPGQPWWAEMLLRIWTFLSVQLGWAAGALIVCNAAAFREVGGFDLTLYAAEEIDLSQKLKKYGRKRKLKFAILNAHPLETSSRKTQLYSGWEIVGQFLRLVLSPLGTLRNKKKLPMWYDGRRLEHHHHHH,soluble
2,MLQIEKIVSNKGNDLSLRWNLLKKIDHFQCLTSLTRLNLNDNQIEKLENLETLVNLVFLDVSYNRITKIEGLSELINLEELHLVHNKIITIEGLETNTAMKYLEFGDNRIQKMENLSHLVNLERLFLGANQIRKIEGLDGMAQLKELSLPGNALQIIEGLDTLSGLKSISLAQNGIRKIDGLSGLTNLKSLDLNDNIIEKLENVEQFKGISSLMIRKNKLNCWQDVRQLKKLENLTVLTMEMNPLYSSDYTYRNRVKEILPDVKLLDGFPIFWVQGDPYQPIPEEFYEMGDVYVTSPTFVGHDTGSILAIDCHPSGKKFITCGQKARTSNGLVVVWNAEPVLDKKKASNENVPKLLFQVESQSQSNSCRWSPDGKRFAFGSDDSSVSVWEYVGLINSMGSITGGAQNVERYKECCVLRGHSMEVLTVEWSPNGKYLASGSIDYRIIIYNARKLPDRITVLNDIQLPVKGLSWDPIGKYLASLEGDKKLRFWATDSWQCVKSVTEPFESNIEETMLTRLDWSPDGKYLMTPAAVRSGKPLIKLIQRQTWKSDQFLAGHHKGTTCVRAMPRLIEANLKNGKRMQLTCAAVGSRDKSISIWVFPGTLKPLFVINNIFNHTVMDFAWCGRNLLACSQDGTVKVIHLSESVIGEMISNEAMSDLCYQIYSIRPPRYELTDKEEDESQDSFNLSDLSSSANNASFVTCPEDVLIKRKKLVAAQQSSDIQLTKSMEDNSKENESKNSEKTMMEERNKQIDVRKDGKRRIQPVFCGTTTADPMTSLSSEGKKTVAPPPAKRKALAPAVPAKKGEVDLEDSSDSDDDDEEEEEDMEISDIESVRNKKRKVPATTSQPMLALDLKKPALRPMEPKSLKTQEGTVLMEAPEQQPKLSQHVVDRKGMFVEIDNRWKHGGVETTQIKLIKKKQQTAENEDDMMDGERRVNHECLWMAVLGSPVIIVAANKHNVVLGCGDKCLRVYRTFCGTHIVSLRLDSLPVLIGVTEHAAYALTENGRLSTWNLKLGKAVVTRQPLFDCVEASTDNSLISADVSETGVPLIVFSNGSIFTFNVSLSCWIQAITTNVLGRLTSPISDAQLSCSNGTTNSAGPLVRLLKRMRKQATAPGVAPQVVKAVKESQLEQLLHCAEQLGNPQDYQTMLMLYVETLCEGGSEKKLKNILNDLSRSGAPMQVCGLRRSALYDDVTRMIKLKQPAIAARIVAGVAASTTTKSLF,not soluble
3,MSLDIRRANSADLNALNALEQQLFDGDRISPRQMKRFLHSDHAALFVADAGDQLAGYALLLFHQGTQLSRLYSIAVKPEFRGQRIAQSLVEQCERAALDQGSTTLRLEVREDNTAALKLYEKMGYKTLKLLIHYYDDLCDGRRMQKRLTPQESKVLLPMPLYVQTTPFTCGAACLLMSFACLDKTFEPSRTQEMQLWREATTIFMAAGHGGCSGQGLALAAARRGYHVELWNQSRSTPFIDSVRDPNKKQIIELVHQDFCQQLAEQDVSMIDAPPSQAQLEEWVRKGACVLLLISTYRFDGKKEPHWIVLSGLSDKFFFFHDPHAESEEHVSGSGYIPVGKAALSQIIGFGKQKQIACVVITPRLEGHHHHHH,soluble
4,MGSSHHHHHHGKTIFVIVPTNEEQVAFLEALAKQDELNFDWQNPPTEPGQPVVILIPSDMVEWFLEMLKAKGIPFTVYVEEGGSENLYFQGGGGGGCCSLLFFVYIAFSLIHTLHHLFLFSECNISADERMDVPSEDYDVSIMIKAIHEVQDVLTSRQFATFSEVDTEIGKTLKRYEAFGDGFERFHVNLTKDALQSNDLQKSLKDMDKRCQDRLRDCASSQKDQINDILPFIRNTSSILVHGSGNLLALTIACSIQEHEGVRFYICEGRPARKGYPHGSGEQLLEKVLATPEGMRLKDKLHKYCTIVPDSGVSSVMNSVDFVIMGAYCVTEHGGLVHSTGSLQIAIVAAFRNVPCYVLCETFKFAHIFPLSTDDLKQPENGAGEVVPLVEFVPPSMITLIFSEQGIMPPSAVADEMFRFHTAPSAPGKRR,not soluble
5,MNLEHHSNHYQPTCSIEALQARAKLYQTIRTFFAERGVLEVETPIISQAGVTDVHLASVKALRHIEGKERTQYLQTSPEFAMKRLLASGSGPIYQLCKVFRDDEHGRKHNSEFTMLEWYRPEFDLKDLMHETADLLETCLKQRFDEIRPMILSYKHAFQDRLEINPLQATLKQLKDTADRVGLNLDLGNDRLAYIDLLFSHIVEPSLGFDTPVFLTDFPPEMASLAKVRIDEDGEEVAARFEVYIEGLELANAYDELLDANILRARFEADNLERKLQGLAEMPLDENLLAALPHMPACAGIALGVDRLLMIATRQLKIEQVIAFPAAIA,not soluble
6,MGSDKIHHHHHHMDLSSNRLAGKSILITRPLHQAGGLATWVRELGGEPWLFPVLEISDSENKQPLLDLIARLDEFDLAVFVSPNAVEKVIPLVQVSHSWPRHVLVATVGKGSARVLERYGITNVIVPEEGSDSEALLRMPQFQVMQGRHVVIFRGNDGRRLLGDTLRERGASVEYIECYRRHKPEADPLPLLKHWRDDGIQAVIISSSEGLDNLFDMIGETGQQLLKATPVFTAHERIERKARELGIRKIYRTLLGDEGTVQGLLEYFEKM,not soluble
7,MNESERKIVEEFQKETGINFKNEELLFRALCHSSYANEQNQAGRKDVESNEKLEFLGDAVLELFVCEILYKKYPEAEVGDLARVKSAAASEEVLAMVSRKMNLGKFLFLGKGEEKTGGRDRDSILADAFEALLAAIYLDQGYEKIKELFEQEFEFYIEKIMK,not soluble
8,MTSSSSPSQDTKRLAQTYPEGLRADALMEEDVAWNRGNDSQWDGEQFDRSDRAALRRVAGLSTELEDVTEVEYRQLRLERVVLVGVWTSGTVQDAENSLAELAALAETAGALVLDGVVQRRDKPDAATYIGSGKAEELRDVVLHTGADTVICDGELSPGQLIHLEDVVKVKVIDRTALILDIFAQHAKSREGKAQVALAQMQYMLPRLRGWGQSLSRQMGGGKGGGLATRGPGETKIETDRRRIREKMAKMRREIAEMKTGREIKRQERKRHKVPSVAIAGYTNAGKSSLLNRLTGAGVLVENALFATLDPTVRRAETPSGRLYTLADTVGFVRHLPHHLVEAFRSTMEEVGDSDLILHVVDGSHPVPEEQLAAVREVIRDVGATDVPEIVVINKADMADPLVLQRLLRIEKRAIAVSARTGQNIDQLLALIDNELPRPSVEIEALVPYTHGKLVARAHDEGEVISEEHTPEGTLLKVRVHEELAAELAPYVPAPLALEHHHHHH,not soluble
9,MSGLEAKIAAIRDPDLQAELEAARGGFLFAPIVEHLLFRQRERDAARAQEGAQAEAREAMGRDRRRRDAVREVIESEPTGPENLQHLHSVLALCGLPYRDPGDARDFVREYGRNSLSLSAGRLKNPITGEMELQGLPYGPKARLVLLHLCTEAVRQRSPTIEVADSLSGFMKAMGFAVTGGERGTIGAFKEQLNRLAACSMQLGLWDGEGQASTLNVPPFRQLELWRRGDDGLVWQRTVSFHQDFYDSLIRHALPVDIRAARAFSGSARKLDLLFWTGYRLRALQRPLRLTWDNLHRQFGAENASLRSFRQAFKADLAGLLEVFPRLRIDLDEGGMLLHPADPGSLLVPPKLEHHHHHH,not soluble
10,MSLTIYHPAELPQRQAEKSPNKTIIKYYDRESKQWRNISWSKFAAGVMNAAKALAEIGLESGERIGIYSPNMVHCLYTELGAFAMRGVVVPLYATSSPEQLRFIVEDSSMETLFVGEQFQYNNAYRVQKEYGTLKRIVVFDERVVLNPEDKTSKYFSEFVRLGDSMPNETKVKVSSREAIPSDPALIIYTSGTSGRSKGVLLLHSNLMYQMKVHSEHIPVYGPGELSIAFLPMSHIFEKAWTLFCLTTGTRIAILRDPKKVLEALPQIRPSLMCNVPRFWEKVYQGVNEKMASSPRILKGVYRRAMAVGQRYRLDYWNEGKRAPLLLSMQYAFYNCTIFTLLKRVLGLQRGRYFPTAGAPLSDEINIFLQSVNIPIIVGYGLSETTATVSFYPQRGFKIGSMGKVMPGLDARIDPDNNEILVKGESVMSEYYNLPEETAGAFTPDGYFRTGDAGRMDPDGTLYFLERIKDLYKTANGKYIAPQMIEGMLTKDPIIEQIAVIGDRFKYVSALVYPNWELVRQAAIKRGLEQARTMSVDEMAANPEINRLMMARIEAAQDSLAAYEKVKYITLLAEPFTLEKGELTETMKLKRRVINEHYAEAIEKMYEGHHHHHH,soluble
11,MTTAVTQAIIDGFFDASNGDPFATLGMHETEQGIEIRTLLPDANRMVVIERESGKEITELDCVDERGFFVGVIPNCRQFFAYQLQVFWGNEAQIIEDPYRFHPMID,not soluble
12,MSLSTTPGLYAVIKLTHLYLPGTLKIHHLKGQLLDQFSIGEMEYQHQGTKIKIFNLAVNWRFSSLLHKKLPIDSMSAEMIEINQKTPMLILKNIKLSGYLNQQSIKLNTLQFNYWNQLITSQLELSNSFPHVFSGKIRLNPHSTNKNIFSGGVDIGGNRNQIQWGGEFEGPGKITINGSLQQLKQIKQIIKWRDLHWQDNKNHNLKSSQGRIEVSGTIPNLAIDLKSKLGIDQLKNWQMNAAIKGKLPWQWNINATFSQPLDFSSKLDGLYTKFALKMETKNDHHADFLITIAPGHYQMTENNLMPLIQFTGGNIKGSLSQKQFSGQGVLFLDAYKKVNFNFKFPEFNVYQDIAQQTIDAKLSILFNSLDFLQNASPYLINPKGQFLASIHAKGTLNKPIIESKLALNKGSFNIPALGLNITDMVLAVFSKKDGWEATGSIHSSEKKLTLKGQGIFNKELGGTVSIEGSNFPIANNKEFQVNISPQLQVRFTPSLCQITGTIQIPNAHIKPQTFTNSLVATDDIVFTSKNTQPITPLFNTNMSVRVEMGEEVELTFKGLHAYLAGIVTINQLSQGPITANGELTVRKGEYKAYGQDLSIEQGQLIFTGGRIDNPEINLRASKNISNSFGSVSGSSELFNFNNYNNLNVGNNFNVGVEVAGRLQSPKIQLFSNPPTLSQADILSFLVIGRPANQADKAKGQLLLTAISSMNLGTGTNGTQLLEQLKQKLGFDFNVQTTTNFNQQTNKISESTGVVVGKSLSDRIYLSYNVGLSQTDPNVLTLKYILNKFLSIQVSSSDSGNGVDILYTKSTSSPEEGHHHHHH,not soluble
13,MRGGVESTSTACATGLHCIGNSFRSIRYGDSRRALAGAVECALNPIALAGFDRMRALARGDQPNISRPFDKKRAGFVMSEGVGLVFMERLEDAQARGAQILAEVVGYGISSDCYHISTPDPSAIGAVLSMNRAIGNAHLEPKDIGYVNAHATSTPNGDSVEAEAVRQVFPEQNIAVSSVKGHIGHLLGAAGSVEAIATIFAMNDDVLPANRNLEETDEGNGLNLLRENQKWSDVSGNKSRISICNSFGFGATNASLILKQF,not soluble
14,MRNERAAKLVVIGGGTGLPVLLRGLKQHELDLTAIVTVADDGGSSGRLRDELHIPPPGDVRNVLAALSDVEPLIVELFQHRFQNGNGLSGHSLGNLILAALTSITGDFVKAIREMSKVLNVRGQVLPAANKSVVLHAEMEDGSIVSGESKIPSAGKKIKRVFLTPEDIEPLPETVDAIRRADLIVIGPGSLYTSILPNLLVPKIGQEVCKAKAKKVYICNIMTQAGETPHYTVSDHVEALHAHLGGPFLDAVIINSGAIPEAIRRRYEAERAEPVRDDSSGLSLQVIRDDIVTYEDGVIRHNTAKVAALLLGLLPHR,not soluble
15,SSRFSITYKHDFYGGVEGEVTGGSALLCCPQEDIKSFLSEPVYSRLCASAWALTIECPSDPRTPSGTPGPLGTVPWRWGSLGMGGPLLPTAPTPRERERRGGQPAQRWSAEEGQEGSADGEAEATQELILAVVQEGAEGQCQGQGRKLLLQRGAHDPVTVHRAFKKEVGLGQVQLIPKGGTGVLHPGAGLKLHTHLQLVTGFVVIRRMHACLAQRYCSQPVVQCVFPS,soluble
